Laboratory results published in publication PMC10364586.

Target: PADI4 (peptidyl-arginine deiminase 4), recombinant, dimeric (human) (UniProt Q9UM07)
Assay: BLI

PADI4 (peptidyl-arginine deiminase 4), recombinant, dimeric (human), sequence (Q9UM07 whole entry): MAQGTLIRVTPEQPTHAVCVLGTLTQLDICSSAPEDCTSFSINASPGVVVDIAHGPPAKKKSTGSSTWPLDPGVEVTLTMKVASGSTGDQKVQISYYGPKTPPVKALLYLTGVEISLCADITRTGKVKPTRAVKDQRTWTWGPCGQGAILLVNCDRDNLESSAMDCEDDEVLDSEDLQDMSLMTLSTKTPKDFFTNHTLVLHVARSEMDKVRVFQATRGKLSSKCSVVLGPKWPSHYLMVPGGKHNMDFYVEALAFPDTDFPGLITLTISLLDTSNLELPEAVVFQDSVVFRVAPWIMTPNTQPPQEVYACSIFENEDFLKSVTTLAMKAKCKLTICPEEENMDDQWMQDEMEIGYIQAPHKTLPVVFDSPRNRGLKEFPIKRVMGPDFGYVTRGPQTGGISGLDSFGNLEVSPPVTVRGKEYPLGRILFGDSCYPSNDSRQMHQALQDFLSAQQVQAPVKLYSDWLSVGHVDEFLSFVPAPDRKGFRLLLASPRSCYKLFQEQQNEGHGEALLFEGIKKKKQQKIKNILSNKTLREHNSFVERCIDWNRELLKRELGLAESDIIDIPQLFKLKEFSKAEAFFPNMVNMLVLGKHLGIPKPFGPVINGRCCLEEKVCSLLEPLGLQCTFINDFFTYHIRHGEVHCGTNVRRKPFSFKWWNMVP

- Kd: 2000 nM
- koff: 0.3 s⁻¹
- kon: 170000 M⁻¹ s⁻¹
Substance: N-MDM2 derived from GST-tagged N-MDM2, GST-tag removed with thrombin (domain or fragment)
